Results published in the supplement of paper PMC10126150.
± gives the standard deviation of the averaged measurements.

What follows are sequences tested on ATP (assay: switch fluorescence ratio, 500 uM ATP over buffer (Cy3 cluster intensity, sum of 5 cycles each) (fold (ratio)); higher = stronger signal-on switching upon ATP binding; sequences stand for … in TCGTCGGCAGCGTCAGATGTGTATAAGAGACAGTTTTTTTTTTTTTTTTTTTTTTTTT…TC). Settings: aptamer strand: ATP DNA aptamer (quencher-CACCTGGGGGAGTATTGCGGAGGAAGG + anchor), 100 nM annealed; ATP concentration: 500 uM.
How it was run: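 Between each of five buffer/ATP cycles, the flow-cell was stripped with NaOH and re-annealed. Each cycle imaged Cy3-labelled switching-strand clusters, annealed to 100 nM quencher-labelled ATP aptamer on a modified Illumina MiSeq flow-cell, first in selection buffer and then after 15 min with 500 uM ATP at 22 °C. The fluorescence ratio is summed target-cycle over summed buffer-cycle Cy3 intensity per cluster, averaged per switch-domain sequence, with clusters outside 100-1000 RFU excluded.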
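Further: ATP exposure 15 min at 22 °C before imaging.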

Sequence | switch fluorescence ratio
TTTCCTGAGG | 0.991 ± 0.016
TGATGTTAGC | 1.03 ± 0.036
GATGTGAATT | 1.02 ± 0.011
GGTACTTAGG | 1.06 ± 0.031
TAAAAATCAT | 1.01 ± 0.034
TAGGAGGGGC | 0.958 ± 0.12
GTAGCTGGTG | 1.02 ± 0.018
AAAGTACGGT | 1.21 ± 0.024
GAGATGGAAG | 0.993 ± 0.018
CAGGGGAAAT | 0.993 ± 0.029
AGCGGCACAC | 1.073 ± 0.0095
TGCTTTATAT | 1.18 ± 0.29
GCATGGGGAT | 1.02 ± 0.051
TCTTATCTTG | 0.978 ± 0.037
CACATAGTTT | 1.03 ± 0.023
CTTATATGAG | 1.001 ± 0.0025
TAATTGGACG | 1.12 ± 0.062
TGACGGGGTG | 1.01 ± 0.044
ATAACTTATA | 1.011 ± 0.0041
GACGTCAGGG | 0.997 ± 0.052
TATTGAGCGT | 1 ± 0.044
AGTAGGGTTA | 0.989 ± 0.029
TTTTTGGGCT | 0.996 ± 0.028
AAAGTGGGGA | 1.03 ± 0.038
TGGGAATCAC | 1.05 ± 0.017

Sequence | switch fluorescence ratio
TTGGAGGCGA | 0.994 ± 0.062
AAAGTAGGAG | 0.98 ± 0.048
TGGTTGATTG | 0.975 ± 0.047
GCACATTGCT | 1.02 ± 0.013
GGACGGAAGA | 1.101 ± 0.01
TTTGGTTTAG | 1 ± 0.015
GAATGAGTTG | 0.977 ± 0.02
GAGCGGGGTG | 1 ± 0.021
AGTACGGTGG | 0.985 ± 0.064
TTACCCTGGG | 1.07 ± 0.074
GAAGGCCTGT | 0.9745 ± 0.0097
TCTTAATTTT | 0.973 ± 0.024
GCAGGGAGAG | 0.964 ± 0.022
GTTAAGTTTT | 0.985 ± 0.021
TTGAATGAGG | 0.95006 ± 0.00095
CGAGTTGGGG | 1.01 ± 0.031
GCCCTTTCGT | 1.032 ± 0.0021
ATATATTCC | 1.1 ± 0.019
GTGTCGGGGT | 1.002 ± 0.004
GACAGGGGCC | 0.987 ± 0.018
CGGATATAAG | 1.01 ± 0.013
CAAGAAGAGT | 1.01 ± 0.04
TTTGCCTGAC | 1.57 ± 0.37
AGGTTTTCAG | 0.983 ± 0.045
TGGGTTGTAT | 0.998 ± 0.02

Sequence | switch fluorescence ratio
TTATATTCCT | 1.11 ± 0.048
TACGTGCATA | 1.122 ± 0.0033
GTATGCCTTC | 1 ± 0.032
GTGAGGAGTA | 1.001 ± 0.0093
ATTTGAGCTG | 0.947 ± 0.13
GCTTTTCATT | 0.988 ± 0.038
AGTCGGATTC | 1.09 ± 0.076
CGGGATAGGC | 1.12 ± 0.02
TAGGGGGGGA | 1.01 ± 0.018
GTGATTCCGA | 1.02 ± 0.029
TAAAAAAGCC | 1.03 ± 0.091
TTTCATCTCT | 1 ± 0.04
CTTCGTATGG | 1 ± 0.029
TGCCAATGAA | 0.965 ± 0.02
GTAGCATATT | 1.49 ± 0.011
ATGTCTGTAA | 1 ± 0.013
TCGGTCCGTT | 0.9492 ± 0.0027
CGTTTAAGTA | 0.973 ± 0.019
CATCCGGCGG | 1.17 ± 0.038
TTATATGAGG | 0.962 ± 0.045
GCAAAGCGTC | 0.9824 ± 0.0083
TTGTGCTTTA | 1.006 ± 0.0062
AATCAATCTA | 1.01 ± 0.071
TGGGAAAACG | 1.05 ± 0.078
CAGTGTTGGG | 1.002 ± 0.0016

Sequence | switch fluorescence ratio
GAGGGCAGAC | 1.24 ± 0.075
TTTGTCAGTT | 0.956 ± 0.043
TTTGCAGGGG | 1.06 ± 0.1
ACGGCTCAT | 1.01 ± 0.037
ATTAGTGCCG | 1.04 ± 0.14
CTTCTTGCTG | 0.972 ± 0.011
TCATGGATAG | 1.006 ± 0.002
AGTGGATTCT | 1.004 ± 0.0022
GGGGCCGAGG | 0.9573 ± 0.0075
TTATATAAGT | 1.02 ± 0.023
ACGCTGGAAG | 0.9892 ± 0.0067
TAATTAGTGG | 0.9832 ± 0.0051
GAAAAGGTTC | 1.04 ± 0.044
TGAATCAACA | 1.04 ± 0.037
CGAAGAGGGG | 0.995 ± 0.016
GGGAGGAAAG | 0.991 ± 0.017
CTGGGACGAT | 0.998 ± 0.03
ATTACGCCA | 1.17 ± 0.11
AAATTGTCGT | 0.977 ± 0.042
TTATTGATCT | 1 ± 0.065
GAAGACTACG | 1.04 ± 0.038
CGCCCCTGAA | 0.997 ± 0.017
GATGCTGGGT | 1.01 ± 0.014
ACTCCCGAAT | 1.865 ± 0.0096
GTAAAAGTCG | 1.03 ± 0.015

Sequence | switch fluorescence ratio
AAAAGTAAAA | 1.03 ± 0.061
TTCTGGGGTA | 0.988 ± 0.033
TTGACGCAGG | 1.06 ± 0.012
CGGAAGACGT | 1.02 ± 0.036
AAATTTGGGT | 1.01 ± 0.013
ACGGCTCTGG | 1.015 ± 0.0057
TTGACGAAGG | 0.95 ± 0.026
AAAATGATCG | 1.006 ± 0.0074
GACACACAAG | 1.14 ± 0.016
TATTTTTATC | 1.03 ± 0.018
TGGTGGGGAA | 0.974 ± 0.01
GCGGCGCTTA | 1.02 ± 0.016
GGGTCGTAGG | 1.002 ± 0.0011
ACGGTCCTTT | 0.973 ± 0.038
GAATCTTAAA | 0.997 ± 0.026
AAGAGAGGCA | 1.02 ± 0.023
CGGTTACGAC | 1.02 ± 0.021
AGCCATGTGA | 1.01 ± 0.011
CGGTTTTGGC | 0.998 ± 0.019
CGTTTTCCGA | 1.01 ± 0.032
TTTGGCTTGT | 0.9714 ± 0.0068
AGGCTAGTGG | 0.993 ± 0.035
GGGTTTGAAT | 0.978 ± 0.032
AAGCGTCTGG | 1.02 ± 0.024
TATATATGAA | 1.01 ± 0.015

Sequence | switch fluorescence ratio
GGGGGTGGCC | 0.952 ± 0.098
GGGTTTTACT | 0.991 ± 0.053
TAAGGAGTGG | 1.03 ± 0.073
AGTGTAATTT | 0.973 ± 0.02
CGGTTATCGG | 1.002 ± 0.0031
GGGGATGCGG | 1.02 ± 0.021
CAAGAAGATG | 0.9523 ± 0.0012
ATAATAATGG | 1 ± 0.037
TCCGTAAACG | 1.09 ± 0.041
CAGTTGGTTT | 0.97 ± 0.02
CATGGGCTAG | 0.997 ± 0.057
TTTTTGTGAT | 1.02 ± 0.032
GCTGCCACTA | 1.003 ± 0.004
ATAATAGAGC | 1 ± 0.023
ATCGGGAGAT | 0.9833 ± 0.0076
CTAGCAACGC | 1.08 ± 0.028
GTGAGCCAGT | 1.01 ± 0.022
AAGAGGGGTG | 1.01 ± 0.025
TTATCGAGGA | 0.973 ± 0.021
AAGGGGGTCC | 1.03 ± 0.036
GCTTACAACG | 1.02 ± 0.029
GCATGGCTTT | 1.01 ± 0.023
GGCGGAGGGG | 0.998 ± 0.024
TGGTAGCAGG | 1.24 ± 0.35
AATTAAAGTT | 0.98603 ± 0.00086

Sequence | switch fluorescence ratio
GCATCTCGCG | 1.01 ± 0.021
TTTTAATGAG | 0.9774 ± 0.00031
AAGCCGGCTA | 1.03 ± 0.023
TTTGCAAAGG | 1.007 ± 0.0022
CGGCAGGCGG | 1.05 ± 0.044
TGTGTTAAAT | 1.04 ± 0.011
GGTTGTGGGC | 0.992 ± 0.019
TGAAAAGAAG | 1.029 ± 0.0061
GGTACTATCG | 0.961 ± 0.071
TCTTAGAGGG | 0.991 ± 0.017
TGGTTGGAGC | 0.997 ± 0.029
CGGTTGCCCG | 0.979 ± 0.12
GAGGGGGGTG | 1 ± 0.028
GCGAGTTGGG | 0.985 ± 0.022
AAGTCACGGT | 1.09 ± 0.02
CGTATGGCCA | 1.0198 ± 0.00072
ACATCAGATG | 1.005 ± 0.0023
GATGAGGGGG | 1.03 ± 0.09
TGGAGGAGCG | 0.955 ± 0.036
GTGTTTTTTG | 0.968 ± 0.019
TTCGCTGTAT | 1.01 ± 0.011
GATAGTGAGA | 1.03 ± 0.011
GTGTCTAAAT | 0.989 ± 0.011
AGGGCAAGCG | 0.938 ± 0.041
GGAATAGGGT | 0.98 ± 0.052

Sequence | switch fluorescence ratio
GGAGTTTGGG | 0.994 ± 0.039
GATGTAATAG | 1.57 ± 0.19
CCCGTTTTTG | 0.986 ± 0.014
ACGTGTTCAT | 0.983 ± 0.018
GGATTCAGGC | 0.981 ± 0.027
GAGCGAGCTC | 0.988 ± 0.021
TTTTGAAGGG | 1 ± 0.021
TAAAAAGAGC | 0.984 ± 0.022
AACTTTTGCT | 1.03 ± 0.066
GTTAGAAAAT | 1.01 ± 0.03
TACTTTCGTA | 0.983 ± 0.011
TGGGTTGGGA | 0.991 ± 0.035
GCGTGTTCGT | 1.031 ± 0.0084
GGGGGTATGA | 1.02 ± 0.022
GAAATGTGGT | 0.997 ± 0.02
CATATGCGTA | 0.9857 ± 0.0015
TAACGAAAAA | 1.03 ± 0.062
TAATGCTTAT | 1.06 ± 0.12
TAAAGAAGGT | 1.01 ± 0.033
CAGGTTGGTT | 1 ± 0.027
CTATTGGGCT | 1.01 ± 0.012
ATCGATTGTT | 1.01 ± 0.031
GTTAACCCAT | 1.0083 ± 4.1e-05
TTAATATCCT | 1.06 ± 0.026
GTTACGGGAC | 1.24 ± 0.015
